Data published in a protein production outcome set (Wang et al. 2014).

Assay: label from the status in PepcDB records
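Further: failed if final PepcDB status was selected cloned or expressed and not failed if soluble or beyond.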

Row | Sequence | protein production
1 | MAEQEDIILEKPEDGLNQPRLDESLEGFKGQEGQAPEDEEFASLPEELPQENSESGFKFTRESAPEDVSTFEEVESQEPTPWYKDRKFMSLVGLSLGIICILVFTLFYLTFSEGKIKPDIIASKPLEQPVIMPDESYKYNDMQRIDGMIQKANALYLKGEVEQALKVYEQVAVYNESLSNYNLGVSQMNENKFQEAFESFKKAIANGENQSVAAINAAVCALKLNDKEKFRYYIDLAQVYLPKEGKSKLYDYYLSLINYYKGYYPEALQMLQRTDVEPYSDVAKYLSAKIYAKMDFDSKAIQQLNSQGNFESSLSLGLLYARIGEYAKAKVALSTAMKIERDFNQSLAALTLVDIKTGNYQDMLARLQNSYDNDKDRYKILDTYKIQVRLNKDLFNIAVAQNSFSKDLLKKQKDQFDLLFYFAPYQVFDSKQAALYIKKANVTDFVDDSTDAGIYLNISKALSSTNVKIANIINYALNQKLRLANQEFQKLIKDYPEHSILHYNLALTYAQMQNYELAYKHFSSSYHLNPKNYLAGAFAMFCAKLIDIDTTKLYNEILDNIAADSNFKANMQKSMLFLVNNNYISMLPYLDETKKDTPLSLIFEAIVAKNNNLNNQVDVKIAKLRSELPEDILANILYFNSLNSNLNIKEYAQNAQIHFKNLKLDYRSVFGGPNIAREFYVNLMHIAGLLNLERQKFKELINVSGAKDEGILQTLAYLDIFAQQYEEAYALYNSLIDDYGAKDTKTLFLAAVAAVGANNPNSAIALLQLSKLTDKNNKESKAALGMLYQEVKNYEAAISQYKTLPNNFKSEFFTFDINNN | failed
2 | AIARGHGTYMDEDRLTASVAGQVERVNKLICVKPLKTRYNGEVGDVVVGRITEVQQKRWKVETNSRLDSVLLLSAVNLPGGELRRRSTQDELAMRDYLQEGDLISAEVQSIFSDGALSLHTRSLKYGKLGQGVLVYVSPSLVKRQKTHFHNLPCGASLILGNNGYVWLSPTPALQEEQAGGFYTSMEPVSLSDREVVSRLRNCLLALANQKVLLFDTSVLYCYEASLQHQIKDILKPEIMEEIVLETRQRLMEHEG | not failed
3 | LTLRSVFQPIFDKQHQVVGAEALVRIFTQHHTQIRPDLFFHSETFADDDKLNVERLSRAIHIRNFSLSPYRDTRLFLNVLPVAGEQFAYCDISSTLLATRLAELNIPHHRVVMELVEIESGDEGMLQMATEKLVANGFQIAIDDFGCKASTPERVAMLRPNIIKLDRQLLLDFMAGDCCGLLAGVQLAQKTGAHTVVEGIETAEQLAAMQKLDINMYQGYYLALP | failed
4 | MKALNKIRYAFLVCTLMVLVTLAGCNSADRSAEPPQSSHQGSEQEGAKKTPLNVEVFNLGERSMFAVSSVLVTGTADAILIDTQFSAADARQLVDKIKASGKRLKAIYISHGDPDYYFGLDSVHAAFPEAKVFATPQTIAHIQATKDAKLKLWAPQLGQDAPKQILIPEPMQGDQLVLEGQELRIIGMDGPTPDRTFVWIPSSRTVAGGISVMGAQHVWMADTQTPQSHMEWLAVLDRIKSMDPKVVVPGHFLPGASLDVRSVTFTADYIRAFDEETVKAKDSAALIAAMKQRYPGLGGEGSLELSAKVAKGEMEWK | failed
5 | TEDTFWKDETDFNLALTSCYTPLKNALNGGYYGTRGVMLRIARADEVDFRNDISDVYTVNRFTNSNTNSLTQGMFYQFYNALYRTNSIMQKLEEKKEQFSTDFQNSVKGECLFIRGFYLFQLAKEFKDAPLRLTASQSPSTFPLAKSSQADIWAQAKEDLKTAASLLPITNKIGKPTQGAAYAALGKIYVYEENWQEAINVLEPLTQNPYTYKLVEDFNWNFDDTHENNAESIFELLIEDVGGTDLWGDGENINSTQSNTRPKEYAAAEVGGWYEANPTQQIMDIFWKEKDKDGNFDYRARCSVAWDYEGCTYYQRPFREVFAQDKWKTYWILKYQNWKTQKDEPAPPKSFINERAIRYADVLLMLAEAYMNKGALDTSIGYINQIRRRANLNDYSGPITKEGVFEDLVHQRAIEFFVEGERFYDLRRWGLLEQTLKTCDDTRYKNYQTGKSDNINKFNYFPIPAKELDTNPLCTPSEGW | not failed
6 | MLFSIVVHQMILFFSILLVGNVAAKQGVIQENYLPDLAKLVSKIFLPVLIFYMTYAGTTRQMVWENAAMIGLAALFYVVISAVTWIIAKGLRPAGDKAKVFQFAFIFGNTGFVGVPLLIALFPKDGILYLALFSIVDQLLFWTYGVYLATASDKKAKITLKSFVNPNIVAIALALIFIMIGAKLPTVIDDTLQTIKNAVGAMAMIYLGALIFYSDWKTAFKTKDLYFGIVVKMIILPILLGKLLLMTGLPNNMIWSMIILMSLPTMTVVPMIAKLYGHEGAYAAGITAATLAVSIVTIPVVVFFTT | failed
7 | AQNEKNMYSYKKIGNKYIVSINNHTEIVKALNAFCKEKGILSGSINGIGAIGELTLRFFNPKTKAYDDKTFREQMEISNLTGNISSMNEQVYLHLHITVGRSDYSALAGHLLSAIQNGAGEFVVEDYSERISRTYNPDLGLNIYDFER | not failed
8 | MPRMEALFNTVVPVALVVLSGYLLGRQLEMDLSTLSRLTLYALVPALILDSMYRAEYTLEGVWGLVLGFSLTYALLFLLVQGAGKLFGLSRETTKTLLVCGLFPNSGNMGLSLVYFALGEEGLRRAVVYFLLSSALMFGLGPAFIRGGSLKEGLLFTLRLPLFYALFLGLLLKALGLSLPFRLEEGVRLMGQAAIPVLLLTLGMQMGKTRFHLGPFEGAASALRLLLAPLVAYGVGALLGLPRLEHQVLVLQSATPVAVNAFLLTREFGGDALRVARSVVVSTFLAFLTVPLVLYLLGVR | failed
9 | MAFPEYSPAASAATFADLQIHPRVLRAIGDVGYESPTAIQAATIPALMAGSDVVGLAQTGTGKTAAFAIPMLSKIDITSKVPQALVLVPTRELALQVAEAFGRYGAYLSQLNVLPIYGGSSYAVQLAGLRRGAQVVVGTPGRVIDHLERATLDLSRVDFLVLDEADEMLTMGFADDVERILSETPEYKQVALFSATMPPAIRKLSAKYLHDPFEVTCKAKTAVAENISQSYIQVARKMDALTRVLEVEPFEAMIVFVRTKQATEEIAEKLRARGFSAAAISGDVPQAQRERTITALRDGDIDILVATDVAARGLDVERISHVLNYDIPHDTESYVHRIGRTGRAGRSGAALIFVSPRELHLLKAIEKATRQTLTEAQLPTVEDVNTQRVAKFADSITNALGGPGIELFRRLVEEYEREHDVPMADIAAALAVQCRGGEAFLMAPDPPLSRRNRDQRRDRPQRPKRRPDLTTYRVAVGKRHKIGPGAIVGAIANEGGLHRSDFGQIRIGPDFSLVELPAKLPRATLKKLAQTRISGVLIDLRPYRPPDAARRHNGGKPRRKHVG | failed
10 | MNKMNNNILKKNDLSSQEESTHEIQDVLDQLDFYTYKIALFLDIDGTLADFKIDPLACFISKKILKSIQDIQSKGCLVSVITGRDYNSAQKLLADVSLPIAALHGLDIHINEKTQLNAINQNNQIFIQNFLCRLKEEIKYQPDLSIENKHHSIALHYRKNPDLYDIAKHIMNTVKKDNDEFKVIEGKYVFELIPKNSNKGSAIKTLLSYFDAEHYLSIFIGDDITDEDGFNMVNQLEGISIKVGSGKTVARFRLKNIEHVEEFLNLLSHHFPDSSTQITKKYGEQHV | failed
11 | MKVVILGSGSYSGTPKPLCNCENCSIARRNPAFRRTRFSLYIEEGKILVDPSPDLHYHLERLNKKVENVFITHAHFDHIFGVPDLQVYKKLIISSNTLGIKVAKELSRLAFGSEVPSGYEWRYEELQFWNEYSFDNFRVIHFPVIHSLEIAGGYLFEIKGRRIGVTGDTGPEILKDEKVKKLLEGVDILIVEMTKRESIPGVHLGVSDSIEFAKVVGASYTVFAHISHTNYSHEVLEKRVRESGVQGEVARDFTIIEVLEHHHHHH | failed
12 | MLKGKYTKIEKVNGVEREYLITDKYGITIGRIFIVDLNKDNRFCMFRMKIYKQGKSINTYIKEILSVFMEFLFKSNDINKVNIIVDEEVSTQPFVELGFAFEGIINKSIIEKNVLKDEFLFGMDYKNYNSDRINVFKLYGKSITLKVLTPEDAENMLQYYIKNKEHLKPFEPEREESFYTFEAQKQMLIENYKQFINGEGTNFGIYKDAKLIGKIQISGTIYGVFKSAIIGYSIDKDYQGKGYMKDALRVAEAYAFNVMNLHRIEASALVDNLRSQNVLIGCGFEKLGINKNYLFINGRWQDHITFYKTNNN | failed
13 | MPYITIEGGALTREQKSELIRKVTEVASEVMQIPMEFFLCTVKELPDENIGIGGRTIDLIKLEHHHHHH | not failed
14 | MTKGSLSGLPRENIELPDGSVLRRRSLVSDDAFIDAVTADVGHLGEWLRWARHPPTREETERFRAEQDADWDAGRSFVYVLTPPDRHDQVLGGGAMFPNGEVGVLEIGYWVCSPATGRGLATRAAAALTEEGLGLPGVKAMEIHCDRANARSAAIPPRIGYRLLRIEADEPQTVAEAGRSMVWRHDGA | failed
15 | MISLQFFITAFVVVLAPGTGVIYTLAIGLGRGRSAAAWAALGCTLGILPHLAAAILGLAAILHSSALLFQLVKAAGVAYLLYLAWQALRSDGALAIRSEHSHQPGWRIAWRGALINILNPKLSVFFLALLPPFLSGNPASATAEMSLLGLVFMAMTFAVFLLYGAFASAARTYLMQSERALRWMGRGFALVFAGLAARLAMERA | failed
16 | MASSTRSTRSTPARGKSKGASGNVTPWLWMAFALLVVMIDQFFKVVITRSFQYGESRPITSFFNLVLVYNKGAAFSFLADAGGWQRWFFTLLGVVVGAFIIWLLYRHTGQKLFCLAVSLILGGAVGNVVDRIIHGHVIDFLDFHLRNTHFPAFNVADCAITLGAILLIVDELRRVRRH | failed
17 | MTALHDLPGTRLLALFARRELSPGEYYEHLLAHIQRWEPHLNALYRFDPQRVREQAAAATERWRKGQPKGPLDGLPVTIKELIATAGEPIPLGSAATALQPAPCDAPPAARLREAGAIVLAKTTVPDFGMLSSGLSSFHGVTRNPWNLANNTGGSSSGAAAAATAGYGPLHLGTDIGGSVRLPAGWCGLVGFKPSLGRIPIDPYYTGRCAGPMTRCMDDCLLLMRYLAQPDARDATSLPPEVLDWSAEPLSVRGLRVGLQLDPGCGLQPDAEIRAAIEAAARLFEEHGAQLRIVEPLMDRSLLDGLNDFWRARLWSELLLLDETRRARVLPYVHAWAEGGARVSGVDAVRGFNQTFEMRRRAARLFGEIDLLLTPTNQVEAFPADWASPLNDPQRPFEHIVFTVPWNMGEQPALSINCGFTAAGMPIGLQLVAPRFADTWLLRIGKTYEGWRGPIHGWP | failed
18 | PLLIFPPWINKFYIMDLRPENSMIRWLTAQGFTVFVASWVNPDQTLAAKTFEDYMVEGIYDAAQQVMTQCGVDRVNTVGYCIGGTLLSVALAHMAARGDKRINSATFFAAQQDFAEAGDLLLFTNEEWLQSIEQQMDQAGGFLPSQSMADTFNALRGNDLIWSFFVSNYLMGKEPRPFDLLFWNADQTRMPKALHLFYLRNFYKDNALTTGKLSLGGERLDLSKVKIPIYVQSSKDDHIAPYRSVYRGARAFGGPVTFTMAGSGHI | failed
19 | MDTVWMEIWTTVRNEFADIPDVAEATRIVLRLGMAVALGGLLGYERERSGKAAGLRTHMLVALGAALFVLVPLQGGMEVGDLSRVLQGVIAGIGFLGAGAIIKLGNEGEIRGLTTSAGIWLTAAIGVAAGMGREATALASTLIALFVLAALRHLEKRIAARDDKRVVAQPPP | failed
20 | MEAVLNELVSVEDLKNFERKFQSEQAAGSVSKSTQFEYAWCLVRSKYNEDIRRGIVLLEELLPKGSKEEQRDYVFYLAVGNYRLKEYEKALKYVRGLLQTEPQNNQAKELERLIDKAMKK | not failed
21 | LTTAGYYAAVDWGTSSFRLWIIGEDGAVLAERRSAEGMTTAAKTGFHTILDGHLAAVSAPAHLPIIICGMAGARQGWKEAGYIETPAALAEIAGRATAIPDVDRDIRILPGLAQRDRRHPDVMRGEETQLLGAAAHLGAGSHLVCMPGTHSKWVRLADDRVEGFSTFMTGELFDTIARHTILSHAVAEADTFAAGSAAFTDAVSRTRENPALATNLLFSVRAGQLLHGTAAADARAQLSGTLIGLEIAGALAGSGSVDGVCLVGSGGLGTLYRTALESQGLNVRAVDADEAVRAGLSAAARAIWPL | not failed
